Test results from article PMC2651826 (Biochemistry, 2008).
Residue numbers refer to the chain shown, from its start. In names and notes the source's numbering stands. One block for each molecule: values may come before it.

Columns and labels:
[1] = biological target: RS1 from retinal membrane extracts (bovine (endogenous in retinal membranes)); assay: non-reducing SDS gel electrophoresis with western blot
[2] = biological target: T1, wild-type RS1 (retinoschisin), secreted from HEK 293 cells (human), O15537; assay: as above; details: remark: other sources report otherwise
T1 chain: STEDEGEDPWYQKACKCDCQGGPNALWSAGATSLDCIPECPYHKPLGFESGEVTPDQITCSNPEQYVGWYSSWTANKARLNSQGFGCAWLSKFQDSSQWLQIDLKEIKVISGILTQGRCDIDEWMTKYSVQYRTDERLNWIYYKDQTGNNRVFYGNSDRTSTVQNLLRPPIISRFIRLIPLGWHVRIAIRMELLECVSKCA

[3] = biological target: the molecule itself; assay: as above
[4] = biological target: T2, recombinant RS1 secreted from stably transformed Sf21 insect cells (human), O15537; assay: non-reducing SDS gel electrophoresis with Coomassie Blue staining; details: remark: other sources report otherwise
T2 chain: T1 chain

[5] = biological target: T2, recombinant RS1 secreted from stably …; assay: non-reducing SDS gel electrophoresis with western blot; details: remark: other sources report otherwise
[6] = biological target: T3, RS1 secreted from Weri-retinoblastoma cells (human (endogenous in Weri-Rb1)), O15537; assay: as above; details: remark: other sources report otherwise
T3 chain: T1 chain

Molecule: RS1 from retinal membrane extracts (natural protein)
stoichiometry N [1]: 8

B2: RS1 C59S/C223S double cysteine mutant (natural protein, human, UniProt O15537 24-224, looked up)
chain: T1 chain with C36S, C200S
stoichiometry N [3]: 2

B4: RS1 secreted from Weri-retinoblastoma cells, O15537 24-224 (natural protein)
chain: T1 chain
stoichiometry N [6]: 8

The remaining lines, values ahead:

stoichiometry N [2]: 8
B1: wild-type RS1 (retinoschisin), secreted from HEK 293 cells, O15537 24-224 (natural protein)
chain: T1 chain

stoichiometry N [4]: 8 | stoichiometry N [5]: 8
B3: recombinant RS1 secreted from stably transformed Sf21 insect cells, O15537 24-224 (natural protein)
chain: T1 chain
